Square brackets hold non-standard residues; d marks the D form. Peptide text beside a SMILES is read from it. * marks the point of attachment. Pentanoyl(5-NH-cholesteryl) = CC(C)CCC[C@@H](C)[C@H]1CC[C@H]2[C@@H]3CC=C4C[C@@H](NCCCCC(=O)*)CC[C@]4(C)[C@H]3CC[C@]12C; Ahx = NCCCCCC(=O)O
How the values were obtained:
[1] = tested on: CHO cells; assay: Cytotoxicity assay (CellTiter-Glo), CHO cells; format: cell-based, Chinese hamster; conditions: 8 μM, 48 h at 37° C.
Experimental: Trypsinized CHO cells (2×10^3) in media (100 μL) were loaded on a 96-well plate. After incubation for 36 h, the media was replaced with fresh media (100 μL) containing increasing concentrations of Compound 1 in DMSO (final [DMSO]=1%). After 48 h of incubation, the cells in each well were washed with PBS (2×100 μL) and detached by treatment with a solution of trypsin (50 μL, 5 min). The cell suspension (10 μL) was transferred to an opaque 96-well plate containing PBS (170 μL per well) and treated with CellTiter-Glo reagent (20 μL, Promega) according to the Promega protocol provided with the reagent. After incubation at ambient temperature (22° C.) for 10 min, the luminescence of the samples was measured with a Packard Fusion microplate reader.

[2] = tested on: Jurkat lymphocytes; assay: Cytotoxicity assay (CellTiter-Glo), Jurkat cells; format: cell-based, human; conditions: 2 μM, 48 h at 37° C.
Experimental: Jurkat lymphocytes (7×10^4) in media (100 μL) were loaded on a 96-well plate. To these cells were added increasing concentrations of Compound 1 in DMSO (final [DMSO]=1%). After incubation for 48 h, cells from each well (10 μL) were transferred to an opaque 96-well plate containing PBS (170 μL per well) and treated with CellTiter-Glo reagent (20 μL, Promega) according to the Promega protocol provided with the reagent. After incubation at ambient temperature (22° C.) for 10 min, the luminescence of the samples was measured with a Packard Fusion microplate reader.

[3] = tested on: Jurkat lymphocytes; assay: Toxicity of colchicine-cholesterylamine Compound 30 with or without Compound 1, DIC micrographs; format: cell-based, human; conditions: 2 μM; 48 h
Experimental: FIGS. 11B-11E show DIC micrographs of Jurkat lymphocytes treated for 48 h with DMSO (FIG. 11B), Compound 1 (FIG. 11C), Compound 30 (FIG. 11D, and Compounds 1 and 30 (FIG. 11E).
The delivery system was studied with the anticancer agent colchicine being linked to the N-alkyl-3β-cholesterylamine via a disulfide, which compound is Compound 30 as shown in FIG. 11A. The delivery system utilized Compound 1 to release the anticancer agent colchicine from Compound 30. Colchicine was linked to an N-alkyl-3β-cholesterylamine via a disulfide linker to present a compound that is non-toxic to Jurkat lymphocytes at 200 nM. The cholesterylamine-PC4 peptide (Compound 1) is similarly non-toxic at 2 μM. However, the combination of these two compounds (Compound 1+Compound 30) is lethal to lymphocytes because Compound 1 enables release of the toxic colchicine derivative (FIGS. 11B-11E). […] It is thought that tumor-specific proteases capable of cleaving a peptide bond linking N-alkyl-3β-cholesterylamines to doxorubicin or other cancer agent will similarly enable the specific delivery of drugs to cognate cancer cells. Also, a cell type specific protease can be used for controlling delivery of the agent into the cytosol of those cell types.

CC(C)CCC[C@@H](C)[C@H]1CC[C@H]2[C@@H]3CC=C4C[C@@H](NCCCCC(=O)N[C@@H](CCC(=O)O)C(=O)N[C@@H](CCC(=O)O)C(=O)NCCCCCC(=O)NCCCCCC(=O)N[C@@H](CO)C(=O)N[C@@H](CO)C(=O)N[C@@H](C)C(=O)N[C@@H](Cc5c[nH]c6ccccc56)C(=O)N[C@@H](Cc5c[nH]c6ccccc56)C(=O)N[C@@H](CO)C(=O)N[C@@H](Cc5ccc(O)cc5)C(=O)N[C@@H](Cc5c[nH]c6ccccc56)C(=O)N5CCC[C@H]5C(=O)N5CCC[C@H]5C(=O)N[C@H](C(=O)N[C@@H](C)C(N)=O)C(C)C)CC[C@]4(C)[C@H]3CC[C@]12C [Compound 1, N-[6-({6-[(N-{5-(3β-Cholest-5-en-3-ylammonio)pentanoyl}-5-oxidanidyl-5-oxidanylidene-L-norvalyl-5-oxidanidyl-5-oxidanylidene-L-norvalyl)amino]hexanoyl}amino)hexanoyl]-L-seryl-L-seryl-L-alanyl-L-tryptophyl-L-tryptophyl-L-seryl-L-tyrosyl-L-tryptophyl-L-prolyl-L-prolyl-L-valyl-L-alaninamide] ({Pentanoyl(5-NH-cholesteryl)}-EE[Ahx][Ahx]SSAWWSYWPPVA-NH2)
non-toxic: toxicity (cellular viability) [1] | toxicity (cellular viability) [2] | toxicity to Jurkat lymphocytes [3]

Reference: patent US8889631B2, “Disruptors of early/recycling endosomes” (The University of Kansas, priority 2008, dated 2014)
